104 substances from the supplement of paper PMC11502859 can be followed below.

The subject of this data set is HEK293T. Description: median enrichment of reporter reads in eGFP-reduced (low/intermediate) vs eGFP-high sorted cells (eGFP-extension fusion abundance) (ratio); higher = stronger loss of eGFP-fusion protein abundance (more destabilising extension).
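Also: lentiviral eGFP-IRES-mCherry reporter pool sorted by FACS 96 h post-transduction, gated on mCherry-high cells, Illumina read counts normalized per million, median across four biological replicates.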

For the substance GWVRISTTFLDTVK [HBS1L], the median enrichment was determined as 11.5. As for “WGGVGPGRAGVCWHRQPPLWALGGPLKGSPTRGPDESFLSGVGSQRGSPPAAWGRAWPGRVIQRVCQPLTGSPSVAATRSTEL [FAM53B]”, the figure is 5.84; as for “KGPPRAQGPGAPRGWGQTKTRQRGERRERAGAGPLGAELGASGGRRLMFYKL [IER5L]”, 40.8; as for LETIMKKRVHISISKS [CTLA4], 37.7.

As to WWW [Trp03], the median enrichment was 2.55. For the substance “YDGAVTERTQESGTPPGIPSTFSCSWERPGGGAHWEGQDSVPALILPCPDVSCFAQRSFLSTPLIPRLVPREGWRPGHGPSRR [ASIC4]”, the median enrichment stood at 4.69. As for SRPEVQATLASGTPPRL [RTP5], the figure is 0.536; as for YMSF [PPP1CC], 1.47.

As to GCM [BET1], the median enrichment turned out to be 0.417. As for “SAHAARRQGGLRRGPHSTRVCFCAAVQTVATALTERDSRAFILKEMFFPRGLLKE [GATA6]”, the figure is 4.62. As for QTLPFLFEFFRGKG [PCBD1], the figure is 2.9; as for YALGKKDCNQRKSIGVEEIKLTLFWLFF [GLI3], 23.4; as for LASDLPNDLLLAQLDARQARLSLC [BNC2], 4.33.

On to LWLSCLQYLNFKSKSIY [IFNG], for which the median enrichment is 13.2. For “WPLSPHPHLHPRTSLAIGAGPLQTLIPTPTEPLAQVPLVLPHSLAARCPGAHPCRAPKDGEVGGQELLSPTFHAPPLCI [GIT1]”, the median enrichment is 3.23. On to KHVVLWVHFV [ABHD3], for which the median enrichment worked out at 10.5.

On to “LVLLVLLICRCHRTAVTRFLIVPAQPCPRTLGCMSHNMDPG [TREML4]”, for which the median enrichment came out at 3.13. Take “GGLLPLGPLTLSGWWTTKYNPVYNLKIYFTFVLLYLFIKG [SMAD4]”: the median enrichment turned out to be 5.18. With QIKLAVRNAKSC [RBMX], the median enrichment turned out to be 6.47. As for LLMMFQKPK [TGIF2LX], the figure is 8.04; as for RTF [KBTBD3], 0.378. As for DDDDDD [Asp06], the median enrichment stood at 0.38. As for SVAGGVTARSPDFTSFGPVLL [UTP14A], the figure is 0.633; as for QCL [ADGRG6], 0.557. As for IIIIIIII [Ile08], the figure is 5.38; as for YSV [ILF3], 0.744. Then “QPETGGSPPARSGASSCQSSWCYPLNPSAATATVGLRVSEQERKDKLFVVPTMLRFGNPGVFPGGLRKQSL [TNFAIP3]”, with 4.84; and SRNMSSQGIETALNSLTSRL [PCLO], with 3.6. Regarding LHTQSPGVGHTAVISQS [ALLC], the median enrichment came to 0.756. As for FFFFFFF [Phe07], the figure is 7.66. Then “RWTSLFPGPRTLQEMETVQRAVWSHNLNRFSGAPSLLPSLQ [RPRD1A]”, with 6.53. Then “YGPGTGGAHPATEHVRVLVLFRSPLSRCNFCSSSPTPAPSFMLLFRTQPPCPVLVVSR [STMN3]”, with 7.57; and WYTF [PNISR], with 2.74; and YIMDWDILYFSC [UBA5], with 13. In the case of “RKINYTFYSPPEDHCPKAGSICSNNAAFTSSVHLCS [OR4M1]”, the median enrichment stood at 10.5. With YVFLKIKLKKEIFFLIKL [GALNT3], the median enrichment is 6.22.

Consider ERAPTGRWGRRG [Degron KLHDC3], for which the median enrichment was 5.05.

On to QFPTSELGNCTHSNPACSAS [MAS1L], for which the median enrichment came out at 0.296.

On to “SRHIQVSFHHFIYKGDQCHRRVPEEMRSQGLS [MPV17L]”, for which the median enrichment turned out to be 4.12.

As for SFFSLSRFLAALVLL [LONRF2], the median enrichment was found to be 8.16.

Consider EKHLKC [FAN1], for which the median enrichment amounted to 0.297. Take YINEENKRS [CLEC7A]: the median enrichment turned out to be 0.716. As to QTTFPKENIRGFHC [CPVL], the median enrichment worked out at 0.323. As for YILPEDKEKSKYCIGT [IRAK3], the figure is 9.91; as for YISHVNLPER [MSMO1], 15.7. As for LIIMLKSALTFLR [MCF2L2], the figure is 15.2. As to YAQP [MST1], the median enrichment amounted to 0.278. With “WGAPQEGPVDLRRLHKKLMDHWSVPMGSIISSTLKMSKVCSFQTASPGSLGNAGKSKRISLALIT [ACSM5]”, the median enrichment turned out to be 17.8. As for YSFTNQVP [SMAD2], the median enrichment stood at 0.532. Then YKLVLCSG [ZDBF2], with 6.14; and YLSSAPVVVVVLNFRI [ZSCAN21], with 16.1; and “WKRLGRGSGRGLSPPEAGKESLFSHMIFRVLETHSCRSCRTLEFLGNCPAS [GPR83]”, with 13.9. As for “PEPGWGISAGQRRRLSQLFPDIQGHCSLLPSRTSLLPPTMAGGEQVSQKHPVPRMVLCACPSLLGLPFPLLREDVSLLTCTLA [KIRREL1]”, the figure is 4.27; as for EEEEEEEE [Glu08], 0.411; as for SLEWTTAKLAPSSDRKPPCVGDCRHAK [TM9SF4], 1.73. Consider “WDRAGDEARPWTLHPAIETGLRRKEDPGQDPGRLATPPTPRTYSR [NUPR1]”, for which the median enrichment was determined as 5.32. With “LAVGAHHLPDSQRENNLAKPIFDTGTFSSQFSLFSQKMI [C1orf105]”, the median enrichment came out at 12.7. As for WPTSRIYSSWKLPNGEDSTKY [KRTAP24-1], the figure is 3.66; as for WGPGAFPRSSPSSI [RNASEK], 0.405. For SEVIFL [CES5A], the median enrichment was found to be 1.39. As for LSDHPAFPN [TMBIM6], the median enrichment was 0.54. Then LGEMSLSFLLPF [C10orf82], with 3.93; and YYYY [Tyr04], with 4.17; and RGTAVPACSPHLGRGSLAAFSLRSRST [AGAP1], with 0.942. As for LLASIS [TENT2], the figure is 5.22.

Regarding “YSQPQLMPSQSQPPVTPSQSQPRVTPSQSQPHVTPYRSKSGKQKQSVPIPKTVSRKGTLKK [ADAM29]”, the median enrichment worked out at 0.413. With “AEWPGTCLKCLFPISLRDQEGILGMPLTSLLSRQQKWRGSQESALNCPPGWQGSLNRYLELGSGLFPCVLTTRASCSRAGIRG [F11R]”, the median enrichment worked out at 9.01. As for LAGWDHPPAPQLHALP [INSYN2B], the figure is 0.774; as for LEQ [UNC93A], 0.561. As for “GAHPKYACHLRPQAGHTGQPACRQDLPASSSQYSLQRLKCEAPAPPSALQPTGPGRTCPLSVSPSRVPRWRPLSTG [PAK6]”, the figure is 3.28; as for RLPAAQKNFALSFPVLFHTQKDPRKPVFNM [NR3C2], 3.55; as for YKSKNIFLKVMMHSFGW [CENPW], 4.27.

YMQRPRRAALTTRFIF [EWSR1]: the median enrichment came out at 6.81. Then WQHFCILKKCNLFLITALKL [UBQLN1], with 12.2; and SGAKQRHQLLHQKS [SGMS2], with 0.386; and EGTLQSLFHIFKPH [HMCN1], with 7.78. Then GGGTGLTF [CARS], with 0.299. As for CKKKKKKALAFSCLFC [PCDH17], the figure is 46.4; as for GSYISPSIRGHTQESNFALLQALVEAA [ZNF337], 9.72.

WSGKLGAFGLKGRMFPVFLDNKLGK [PKHD1]: the median enrichment stood at 11.8. As for SFAFIF [CHST9], the median enrichment came out at 8.28. Then WLVAIFQHSSCIL [LVRN], with 13.3; and QFDNKAEGLSSNMVAFF [ACSM4], with 0.317; and YGIRLSCFKNVRESHILLMANCYINGNT [CBWD1], with 1.39. As for “CLGVKAFHGHPCTGYLLVMLQNVSPTLCPSLALLPQSP [TEX35]”, the figure is 11.2; as for LEKAIWDLITLNRHANTVCVRALCIQ [PCDH9], 9.37; as for “SGPGIHVGGRGRGGRREGRGEIHTVDTLTSWPKSLPQDLPDLHGQASYGGVSISFFLFLFPGLRASWGPRFTNSPTPLKLWRR [AQP1]”, 5.75. Then LYVTVSCLSSSMYF [ARHGEF35], with 14.4.

Take AAAAAA [Ala06]: the median enrichment came to 8.25. For LQCTIFSHLYYFFSACIT [HAO1], the median enrichment worked out at 1.93.

In the case of “QGPPNLIAGHSQPSESESRFLLSLPSSPLETQLLSQVRQWAGSCFISLSLSIPLCLVSLPLVSAWQPPPPTYHPSPITQVNVT [PGLYRP4]”, the median enrichment came out at 3.73. Then “YEGPSRRATQATVPVPAFPTPAVAPPHPLPLFVPFDERLFTGVGWRDGLEGAQSIRLQGPSWEK”, with 2.44; and VVVVVVV [Val07], with 7.67. Turning to MMMMMMMM [Met08], the median enrichment is 8.55. As for “RILSLIPATPLLISGGRTVSELFVSIGHLSLVVKDWLMITMHRKTFRRKGECFVDHFGFLFCVWQF [EEF1A1]”, the figure is 5.71. As for YVCAEESKTPFRATIPQ [SLC22A25], the figure is 1.62.

“TQWAPCTPVSGAVRLGYIVNSASTERLALRASSESSSSGTPPKPTPPGTPLSGIPAKRRTLSRSRPPHPQSVAPPTEQPRFGP [PRRT1]”: the median enrichment stood at 0.999. Regarding LPSESGGKTPPSLCILNH [UGT3A1], the median enrichment came out at 0.835. With KKK [Lys03], the median enrichment is 0.373. Then “FILERNSTNVKNVTKLLSISLTLLHIRKFILEKNPTDVKNVAKPLSTPLNLLHIRDFILERNPTDVNNVVKLFTYPHTLLHIR [ZNF626]”, with 8.24. Consider APRAPRQRSRDG [Degron KLHDC3], for which the median enrichment was determined as 10.8. With “WPSLPPKPRACLSAQLEGPRLQGVLPQSRCFLCIRDPLPSHPVSCLHRWIIFEPPCVDHFEPPGLAQFILIKVFLGGILGT [PARVG]”, the median enrichment stood at 9.47. Then “VGIRAAPSGAGTAGTAAILLLLVFFLLSKINCGNILVSCDVRCSFVVKFAIDIEIMTSVFPEIKHVSTQDFLDHSRKCQTFSQ [KISS1R]”, with 7.04; and “EVKGSIQVLHLVLPCLLSDHSDGLMWLLMWNCRRVQRRVCNKAIGKHTGAFPSPSGPRPLSKLDNFLLSCLFPALKLKQEIFW [HS3ST3B1]”, with 9.3.
